In the supplement of paper PMC10567573:
± gives the standard deviation.

Assay: protein stability index of a GFP-peptide fusion (GPS, HEK-293T) (PSI 1-6); higher = more stable
[1] = treatment: DMSO, c terminus: a fixed tail appended
[2] = treatment: MLN4924 1 uM, 8 h, c terminus: a fixed tail appended
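Note: 24-mer peptide tiles fused after GFP, lentivirally expressed, FACS-sorted into six equal bins by GFP/DsRed ratio, decoded by Illumina sequencing, PSI is the read-weighted mean bin number.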

Sequence | protein stability index [1] | protein stability index [2] | protein stability index (treatment: DMSO, c terminus: native) | protein stability index (treatment: MLN4924 1 uM, 8 h, c terminus: native)
IYPVWTYSYLVLLFPVFLATDYLR [SLC19A2] | 3.11 ± 0.53 | 3.29 ± 0.37 |  | 
KAPVQNEAPALGGGEYQEPGGNVK [BEX5] | 5.48 ± 0.21 | 5.54 ± 0.26 |  | 
KAVNDETCKASHITSSVFPSASLG [FBXO34] | 3.66 ± 0.2 | 3.61 ± 0.18 |  | 
KCIFTQFRIILGDFDYNAIDNANR [PKD2L1] | 2.41 ± 0.32 | 2.52 ± 0.36 |  | 
KCKQVKEKCKEEFVEEIKKLATQH [ZMYND11] | 4.12 ± 0.15 | 4.14 ± 0.23 |  | 
KCQVGFSSSDLVMRARDSVYHIEC [ISL2] | 1.99 ± 0.36 | 2.3 ± 0.31 |  | 
KCRDLSALMHELSNDGARRQFEFY [BTBD10] | 2.06 ± 0.3 | 2.23 ± 0.3 |  | 
KEFQQVFIPECNDDGTYSQVQCHS [SMOC2] | 4.01 ± 0.36 | 4.38 ± 0.29 |  | 
KEGRPGIPGLPGLRGLPGERGTPG [SCARA5] | 4.21 ± 0.41 | 4.43 ± 0.24 |  | 
KENKDVIQKNKLKLTREQEELEEA [MNAT1] | 5.49 ± 0.29 | 5.37 ± 0.31 |  | 
KEQDGREVDWEYFYGLLFTSENLK [DFFB] | 2.617 ± 0.019 | 2.93 ± 0.01 |  | 
KEYPVVPRSTVRQKVASNHSPFSS [TBX5] | 3.61 ± 0.38 | 3.72 ± 0.32 |  | 
KFPGQSSFLWQRGRKFLQKHLNAS [TOR1AIP2] | 2.47 ± 0.14 | 2.51 ± 0.22 |  | 
KFRAKGRKPCKLMLQVVKILVVTV [MCOLN1] | 2.51 ± 0.39 | 2.16 ± 0.19 |  | 
KFSYMWTINNFSFCREEMGEVLKS [SPOPL] | 2.34 ± 0.25 | 2.19 ± 0.42 |  | 
KGELAPELGEEPQPRDEEEAELEL [POLD4] | 5.44 ± 0.23 | 5.69 ± 0.13 |  | 
KGFSHLDVMLVECYDPKGDQWNIL [KLHL14] | 2.82 ± 0.6 | 2.9 ± 0.68 |  | 
KHAKKEREESLPNLLQYVRMPLLT [KLHL12] | 3.26 ± 0.26 | 3.28 ± 0.16 |  | 
KIGCGNFGELRLGKNLYTNEYVAI [CSNK1G1] | 2.51 ± 0.54 | 2.12 ± 0.59 |  | 
KIKRLRSQVQVSLEDYINDRQYDS [HNF4A] | 3.23 ± 0.19 | 3.45 ± 0.15 |  | 
KIKSEEIEITFSYWDGSGHRRTVK [FAM50A] | 2.27 ± 0.21 | 2.43 ± 0.16 |  | 
KISKEEMVRRLKMVVKTFMDMDQD [PDS5B] | 2.26 ± 0.21 | 2.23 ± 0.25 |  | 
KKEDTEKERDLRDVGDWRKNIEEK [TNNI2] | 5.38 ± 0.26 | 5.39 ± 0.21 |  | 

Sequence | protein stability index [1] | protein stability index [2] | protein stability index (treatment: DMSO, c terminus: native) | protein stability index (treatment: MLN4924 1 uM, 8 h, c terminus: native)
KKLKIFAMPMQDIKMILKMVQLDS [PRAME] | 2.93 ± 0.58 | 2.75 ± 0.56 |  | 
KKNNIKLYVRRVFIMDSCDELIPE [HSP90AB1] |  | 2.06 ± 0.65 |  | 
KKRVSMILQSPAFCEELESMIQEQ [ADD1] | 3.58 ± 0.27 | 3.76 ± 0.43 |  | 
KLTDKHETVVSYLPLSHIAAQMMD [ACSBG2] | 2.66 ± 0.4 | 2.98 ± 0.43 |  | 
KNNICFMSHHQEELVPKQPQKRKP [SLC2A12] | 4.31 ± 0.14 | 4.64 ± 0.3 |  | 
KNSDGMEAAGVQIQMVNESLGYVR [CD207] | 3.83 ± 0.28 | 4.08 ± 0.13 |  | 
KQLLNSAVIAQQRRKPDPPKDENE [DLC1] | 5.35 ± 0.28 | 5.41 ± 0.12 |  | 
KQLNCVEISALNGNRINVPMVRKR [DLC1] | 4.12 ± 0.24 | 4.07 ± 0.3 |  | 
KQNKQVLGYCLLLMLAGMGLHYIA [DNAJC4] | 2.23 ± 0.31 | 2.46 ± 0.37 |  | 
KRDLLGALKYWKKAMNMRYSDRTN [FEM1C] | 1.95 ± 0.25 | 2.27 ± 0.33 |  | 
KRFTDAGFEHYDLFFIDGSTPSDN [CDC14A] | 3.45 ± 0.16 | 3.45 ± 0.084 |  | 
KSIDDTSNFDDFPESDILQPVPNT [STK38L] | 5.25 ± 0.24 | 5.27 ± 0.077 |  | 
KSPQFNRYFYLLENIAWVKSYNIC [PDS5B] | 2.17 ± 0.19 | 2.27 ± 0.14 |  | 
KSSSLLTQTSEECNGILTEKMEEE [ZNF396] | 5.56 ± 0.15 | 5.54 ± 0.27 |  | 
KTAHDSNVLHVARLPNRQLISCSE [WDR41] | 3.6 ± 0.28 | 3.57 ± 0.35 |  | 
KTFYKTADISQMLVCTADGDIHLS [TAF7L] | 2.47 ± 0.19 | 2.41 ± 0.34 |  | 
KTLKAENAGLSSTAGLLREQVAQL [JUNB] | 3.72 ± 0.38 | 4 ± 0.15 |  | 
KTLQEIYRKYRKLIESELSYFVIV [FBXO39] | 2.37 ± 0.41 | 2.62 ± 0.55 |  | 
KTRVDLKELGQSQKEQGLSDNILS [PDZK1] | 4.55 ± 0.1 | 4.88 ± 0.4 |  | 
KVKPAEAETAGAIMAFFLCLGLAL [SLC29A1] | 2.99 ± 0.62 | 2.86 ± 0.71 |  | 
KVPAPKDVLAHQVPNAKKLRRKEQ [NOP53] | 4.76 ± 0.26 | 4.99 ± 0.17 |  | 
KVVHAVDGTAENGIHPLSSSEVDE [PALM] | 5.25 ± 0.11 | 5.47 ± 0.19 |  | 
KYREAARLEINVLKKIKEKDKENK [CLK3] | 4.45 ± 0.18 | 4.25 ± 0.41 |  | 

Sequence | protein stability index [1] | protein stability index [2] | protein stability index (treatment: DMSO, c terminus: native) | protein stability index (treatment: MLN4924 1 uM, 8 h, c terminus: native)
LAALSATISFRIYKSVLQAVQKTD [RTN1] | 2.53 ± 0.76 | 2.28 ± 0.54 |  | 
LAEYCVKTKAPAPDEGSDLFYDDY [CDC34] | 4.12 ± 0.24 | 4.33 ± 0.41 |  | 
LAFRSGSDNLLVILKRKWWKYILL [SLC35F2] | 2.58 ± 0.47 | 1.98 ± 0.54 |  | 
LAGTFHYYSCERAKKAMGYQPLVT [NSDHL] | 2.2 ± 0.12 | 2.27 ± 0.13 |  | 
LALLVLAHSSDVLENVFSSLTDDK [GOLPH3L] | 2.85 ± 0.57 | 2.83 ± 0.49 |  | 
LANSWNCLPKHLLHSVNQRFGSNN [KLHDC2] | 2.43 ± 0.33 | 2.3 ± 0.23 |  | 
LASQNKPLWQCYLGRFNDINVPIR [PDS5B] | 2.03 ± 0.73 | 2.72 ± 0.058 |  | 
LASYPLALVRTRMQAQASIEGAPE [SLC25A25] | 4.03 ± 0.19 | 4.18 ± 0.43 |  | 
LAVAVPAVTSADSQFSQTTQAGS [LYSMD4] |  |  | 3.91 ± 0.64 | 3.96 ± 0.32
LAVMGYDRYIAICNPLRYSVLMGH [OR10K2] | 2.55 ± 0.28 | 2.58 ± 0.6 |  | 
LDKQMSRDEHRARAMKIPFTNDKI [NFE2L1] | 4.13 ± 0.32 | 4.28 ± 0.25 |  | 
LDLDSIIDEVRTQYEEIALKSKAE [KRT71] | 3.91 ± 0.3 | 4.21 ± 0.57 |  | 
LDLLLDMPPVSYDVQLLHSWNNND [SPSB1] | 2.66 ± 0.32 | 2.65 ± 0.23 |  | 
LDSDHRELIGDYSKAFLLQTVDGK [CDC25B] | 3.77 ± 0.061 | 3.81 ± 0.2 |  | 
LDTVELATYCVRTFALYKNGSSEK [PTPRD] | 2.37 ± 0.042 | 2.55 ± 0.35 |  | 
LEENDETRFILSKVPSEAPSPMPT [SLC6A17] | 4.8 ± 0.15 | 4.84 ± 0.17 |  | 
LEGQDAKMIGFPSSAGSVSPRSTS [KRT13] | 5.18 ± 0.16 | 5.152 ± 0.026 |  | 
LEGQSGVTIKHVACGDFFTACLTD [NEK8] | 2.75 ± 0.28 | 2.89 ± 0.47 |  | 
LEISPDCSQYDRVYCGAGVQKEHE [PCMTD2] | 4.56 ± 0.3 | 4.44 ± 0.21 |  | 
LEQFLAILPKELQAWVQKHHPENG [ZNF396] | 2.63 ± 0.14 | 2.79 ± 0.24 |  | 
LEQRSESVRRTRSKIGFGILLSKE [SMAD6] | 3.51 ± 0.27 | 3.5 ± 0.3 |  | 
LERGRASLIFSLKNEVGGLIKALK [TPH1] | 3.37 ± 0.36 | 2.36 ± 0.61 |  | 
LFPPKAKSNQPKSLEDLIFESLPE [ATE1] | 3 ± 0.055 | 3.66 ± 0.59 |  | 

Sequence | protein stability index [1] | protein stability index [2] | protein stability index (treatment: DMSO, c terminus: native) | protein stability index (treatment: MLN4924 1 uM, 8 h, c terminus: native)
LFVADAYKGLFEVNPWKREVKLLL [APMAP] | 2.56 ± 0.27 | 2.34 ± 0.9 |  | 
LGAEIRNGMAIIRPPGHHAQHSLM [HDAC6] | 2.92 ± 0.096 | 2.99 ± 0.26 |  | 
LGAGSDLKDFTLNETVNSIFAQGA [ADAMTSL2] | 3.12 ± 0.2 | 3.28 ± 0.35 |  | 
LGGYVKIDLATWNFQFLPQVNGHP [PTPN9] | 2.92 ± 0.57 | 2.74 ± 0.86 |  | 
LGHAVLPSNARGPILSRSTSTGSA [SPRY1] | 3.93 ± 0.18 | 4.15 ± 0.098 |  | 
LGPSPQRDPQAVKERALSAPWLSL [ZNF263] | 2.72 ± 0.14 | 2.77 ± 0.29 |  | 
LGRFNDINVPIRLECVKFASHCLM [PDS5B] | 2.83 ± 1.6 | 2.41 ± 0.94 |  | 
LGTAIFIEADRRRAQLHVQGLLHE [SPNS1] | 2.46 ± 0.36 | 2.17 ± 0.31 |  | 
LGTENLHLIFSYSVWVLRDFPEDG [VPS39] | 2.94 ± 0.46 | 2.74 ± 0.7 |  | 
LGTRESDTEVITVEKSSPATSLFV [BCL2L13] | 3.84 ± 0.15 | 4.04 ± 0.12 |  | 
LHLAAQGRHAQTVETLLRHGAHIN [RIPK4] | 2.4 ± 0.31 | 2.98 ± 0.51 |  | 
LISKGANVNRTTANNDHTVLSLAC [ANKRD17] | 2.82 ± 0.22 | 2.81 ± 0.27 |  | 
LKAKLQMTEAALALSEQKAQDLGE [LRRC45] | 4.51 ± 0.36 | 4.57 ± 0.28 |  | 
LKIYNKREEDFPSLREYNDFLEEV [MNAT1] | 3.19 ± 0.39 | 3.68 ± 0.72 |  | 
LKRPVNVPFDIFTEEVKFYQLGEE [KCNA4] | 3.01 ± 0.27 | 3.27 ± 0.37 |  | 
LLAHRLRRWHKSRLLQASGGGLTG [PCDHGA10] | 2.52 ± 0.47 | 2.07 ± 0.35 |  | 
LLCWSVWWALSTCGYFQVVNYTQG [SLC19A2] | 3.41 ± 0.59 | 3.61 ± 0.29 |  | 
LLDEEEALAKKFIDKNTQLTLQVY [TRIM14] | 2.53 ± 0.42 | 2.72 ± 0.34 |  | 
LLEDDSDEEEDFFLRGPSGPRFGP [VAMP4] | 3.97 ± 0.28 | 4.04 ± 0.39 |  | 
LLEDPLCADVILVLQERVRIFAHK [RHOBTB2] | 2.21 ± 0.21 | 2.5 ± 0.25 |  | 
